From publication PMC5190064 come the findings set out here.

The target in the test is integrin αvβ3 expressed on primary human brain endothelial cells (ECs) (human (endogenous in primary brain ECs)) (UniProt P06756).
UniProt P06756, sequence (P06756 31-1048, chain 1 of 2): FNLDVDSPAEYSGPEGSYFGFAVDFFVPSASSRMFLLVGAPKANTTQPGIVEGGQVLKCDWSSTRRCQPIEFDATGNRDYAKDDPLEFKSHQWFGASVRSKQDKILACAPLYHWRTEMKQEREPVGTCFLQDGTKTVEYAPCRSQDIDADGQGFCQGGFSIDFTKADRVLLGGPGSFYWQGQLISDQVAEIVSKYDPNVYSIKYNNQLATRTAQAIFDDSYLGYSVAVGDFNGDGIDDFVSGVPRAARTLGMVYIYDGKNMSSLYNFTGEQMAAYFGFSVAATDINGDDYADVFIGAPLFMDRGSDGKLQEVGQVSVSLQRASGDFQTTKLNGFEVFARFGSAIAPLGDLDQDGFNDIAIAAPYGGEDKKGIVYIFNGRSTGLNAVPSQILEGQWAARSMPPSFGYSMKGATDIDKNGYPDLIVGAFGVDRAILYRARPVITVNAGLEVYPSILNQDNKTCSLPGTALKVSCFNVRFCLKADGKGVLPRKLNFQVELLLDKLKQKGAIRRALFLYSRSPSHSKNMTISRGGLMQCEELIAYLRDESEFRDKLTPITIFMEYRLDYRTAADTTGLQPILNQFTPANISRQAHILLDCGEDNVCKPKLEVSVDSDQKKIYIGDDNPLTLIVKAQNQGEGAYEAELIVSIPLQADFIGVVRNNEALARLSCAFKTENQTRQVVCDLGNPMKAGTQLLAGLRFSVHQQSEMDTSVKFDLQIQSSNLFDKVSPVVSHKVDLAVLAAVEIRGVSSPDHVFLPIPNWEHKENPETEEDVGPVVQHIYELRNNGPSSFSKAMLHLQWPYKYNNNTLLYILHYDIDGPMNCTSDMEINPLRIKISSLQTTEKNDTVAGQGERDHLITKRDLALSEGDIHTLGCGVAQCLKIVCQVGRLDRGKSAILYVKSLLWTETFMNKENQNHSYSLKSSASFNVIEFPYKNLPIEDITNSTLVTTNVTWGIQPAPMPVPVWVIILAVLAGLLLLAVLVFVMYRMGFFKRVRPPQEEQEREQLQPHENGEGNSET
UniProt P06756, sequence (P05106 27-788, chain 2 of 2, further chain): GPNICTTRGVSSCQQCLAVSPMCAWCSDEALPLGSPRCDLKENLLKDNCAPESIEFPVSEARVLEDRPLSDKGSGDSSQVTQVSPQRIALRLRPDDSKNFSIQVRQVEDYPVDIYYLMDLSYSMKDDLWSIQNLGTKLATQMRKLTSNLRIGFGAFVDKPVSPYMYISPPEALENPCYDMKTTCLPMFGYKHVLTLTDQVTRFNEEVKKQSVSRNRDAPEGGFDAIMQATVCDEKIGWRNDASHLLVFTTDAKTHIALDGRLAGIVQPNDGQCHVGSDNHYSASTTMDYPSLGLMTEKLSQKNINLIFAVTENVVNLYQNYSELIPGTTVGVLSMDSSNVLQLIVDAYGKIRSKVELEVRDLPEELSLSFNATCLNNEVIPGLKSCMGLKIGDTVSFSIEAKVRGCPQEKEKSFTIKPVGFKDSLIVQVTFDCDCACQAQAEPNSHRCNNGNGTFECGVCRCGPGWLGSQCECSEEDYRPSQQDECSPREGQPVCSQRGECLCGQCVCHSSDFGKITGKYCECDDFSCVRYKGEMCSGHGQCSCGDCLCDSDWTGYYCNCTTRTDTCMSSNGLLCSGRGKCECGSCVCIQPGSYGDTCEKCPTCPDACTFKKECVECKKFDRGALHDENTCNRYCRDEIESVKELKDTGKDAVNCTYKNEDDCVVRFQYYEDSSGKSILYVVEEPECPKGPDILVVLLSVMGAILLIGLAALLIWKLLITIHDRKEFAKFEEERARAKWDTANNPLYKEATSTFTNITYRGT

For the substance “L1CAM expressed on cancer stem-like cells (CSCs) from glioblastoma (from UniProt P32004 20-1257) (receptor)”, the cell-cell adhesion of GFP-CSCs (08387) to a confluent EC monolayer after pre-incubation of ECs with a neutralizing antibody to integrin αvβ3; percent reduction of CSC adhesion turned out to be 43%.
